# Source: the supplement of paper PMC9170038
# Test system: MS2 coat protein
# Assay: apparent KD of MS2 coat protein; designed switch direction (-1 OFF switch, 1 ON switch): -1; higher = weaker reporter binding
# Outline: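 Designed RNA switches with common flanks were made on Illumina chips by stalled E. coli RNA polymerase. Titration with SNAP-549-labelled MS2 coat protein doubled from 0.7 or 1.5 nM up to 3 µM. Apparent KD is each design's median over clusters after curve-fitting normalised fluorescence.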
# [1] = Eterna round: R95, input ligand: FMN 200 uM
# [2] = Eterna round: R95, input ligand: microRNA oligo, concentration not stated
# [3] = Eterna round: R95, input ligand: none
# [4] = input ligand: microRNA oligo, concentration not stated
Sequence,apparent KD of MS2 coat protein [1] [nM],apparent KD of MS2 coat protein [2] [nM],apparent KD of MS2 coat protein [3] [nM],apparent KD of MS2 coat protein (input ligand: FMN 200 uM) [nM],apparent KD of MS2 coat protein [4] [nM],apparent KD of MS2 coat protein (input ligand: none) [nM]
AGAGAGUCAGGAUAUCGGUGUGCGAGGAGAGGAGAGAGAGACGAGAAGGGACAUGAGGAUCACCCAUGUAGGUG [JR_Exclusion4)Sub019] (puzzle: Exclusion 4),366,389,318,,,
"AGAGCUGCCCAUGACCGCAAGCUUUUUGCUUGUCUUACCACAUGAGGAUCACCCAUGUGACAUGGGCUCCUUAUAAA [Azavees] (puzzle: Sensor v3, turn-off variant 2)",13.9,9.41,13.3,,,
"AGAGUACUGCGAGGAUAUACAUGAGGAUCACCCAUGUAAAAGUGUGAGGCAAAGCCUCACACUAUGUAGAAGGCGCAGUACUCA [Mat - Exclusion NG 2 - Mod of JL - D12] (Eterna round: R96, puzzle: Exclusion NG 2)",,,,19,9.76,18.2
"AGAGUAGGCAUAGGAUAUCCGAAAGGAAGUGUAGGAGAAGGAUGUCGAGACAUGAGGAUCACCCAUGUGAUGCUUAGUCGAAAG [PowerStrip EXNG 1.18] (Eterna round: R96, puzzle: Exclusion NG 1)",,,,359,61.1,50.8
"AGAGUGCUGCGAGGAUAUACAUGAGGAUCACCCAUGUAUUAGUGUGAGGCAAAGCCUCACACAAUGUAGAAGGCGCAGUACUCA [Mat - Exclusion NG 2 - Mod of JL - D9] (Eterna round: R96, puzzle: Exclusion NG 2)",,,,8.83,12.2,18.4
"AGAGUGCUGCGAGGAUAUACAUGAGGAUCACCCAUGUGGAUCUGUGAGGCAAAGCCUCACAGGAUGUAGAAGGCGCAGUACUCA [Mat - Exclusion NG 2 - Mod of JL - D49] (Eterna round: R96, puzzle: Exclusion NG 2)",,,,156,23.4,28.9
AGAGUGUGAGGAUAUAUGGUAAAAGUGAAGAGAGAGGAGGAGUAGAAGGUACAUGAGGAUCACCCAUGUUUGGA [JR_Exclu4_Sub074] (puzzle: Exclusion 4),,38.1,,,,
"AGAUAACAUGAGGAUCACCCAUGUGAGGAUAUUUACUCAAGAGCUUCGGCUCUCAGGUGAAGAAGGCGCAAUGA [EX1 #55] (Eterna round: R97, puzzle: Exclusion 1)",,,,44.7,,45.7
"AGAUAGUCAGGAUAUUAGUGGUGGAGGGAUAAUUUUAUUUUUGAGAAGGGACAUGAGGAUCACCCAUGUAAUAU [JR_Ex4_Sub064] (Eterna round: R97, puzzle: Exclusion 4)",,,,33.3,,43.5
"AGAUAGUGCAGAGGAUAUCUUAAUAGAAAGAAUAGAGAAGGCUGACAUGAGGAUCACCCAUGUGAUGUCUUGAGACUACAUGGU [Prohibition 33 - Jieux - Exclusion NG 1] (Eterna round: R96, puzzle: Exclusion NG 1)",,,,,45.9,
"AGAUAGUGCGGAGGAUAUCUUAAUAGAAAGAAUAGAGAAGGCUGACAUGAGGAUCACCCAUGUGAGGUCUUGAGACUACAUGGU [Prohibition 35 - Jieux - Exclusion NG 1] (Eterna round: R96, puzzle: Exclusion NG 1)",,,,66.3,12.9,18.2
"AGAUAUUCGGUAGGAUAUCAGAAAGGAAGUGUAUGAGAAGGACCGAGCCGGAAACCGGUACAUGAGGAUCACCCAUGUGGUCCA [PowerStrip EXNG 1.23] (Eterna round: R96, puzzle: Exclusion NG 1)",,,,20.4,14,16.4
"AGAUCAAUCACGAAAGUGAUUGAUCAAAUUAGUUUUUAAACAUGAGGAUCACCCAUGUCCUAGUGGGCUAGUCUUAU [Mat - Sensor v2 - var 2 - Mod - D142] (Eterna round: R96, puzzle: Sensor v2, turn-off variant 2)",,,,254,177,249
"AGAUCACAUGAGGAUCACCCAUGUGAGGAUAUGCUUAAACCGUUGAACCCGGUUUGAGGCAGAAGGUGCGAGGG [Eternabot (L2) Solution 37] (Eterna round: R97, puzzle: Exclusion 1)",,,,29.9,,21.3
AGAUCCUGAGUCAGGAUAUAGAGACGGAAGUCGGGCUAGAAGGGACAUGAGGAUCACCCAUGUGGGUUCGUGCC [Lalaarveti] (puzzle: Brourd's mod of Exclusion 4),33.5,16.3,23,,,
AGAUCCUGAGUCAGGAUAUAGAGGCGGUAGCCUGGCUAGAAGGGACAUGAGGAUCACCCAUGUGGGUUCGAGCC [Isonus] (puzzle: Brourd's mod of Exclusion 4),,16.7,,,,
"AGAUCUCAUGACGUUUGCAACAUGAGGAUCACCCAUGUGAGGAGGGUAAACAAACCAAGCUUCGUGCUCGUCUAUAA [Eternabot (Original) Solution 46] (Eterna round: R97, puzzle: Sensor, turn-off variant 1)",,,,38.9,,52.3
"AGAUCUGCAGGAUAUGGUUUUCGUGACAUGAGGAUCACCCAUGUCUUAUGUCCGCAUGUUUCAGAAGGGCAGGACG [Eternabot (L1) Solution 71] (Eterna round: R97, puzzle: Exclusion 5)",,,,74.3,,27.8
"AGAUGCUUAAGUCGACAUGAGGAUCACCCAUGUACAGUUAACGAGGAUAUCCGAAAUAAAUAAUAGGAGAAGGCGUGAUCAUGA [Ex NG3 #1] (Eterna round: R96, puzzle: Exclusion NG 3)",,,,82.4,145,307
AGAUGGCGAGGAUAUACAUGAGGAUCACCCAUGUGAAUAAGAAGAGUGAGGAAGAAAAGUAGAAGGCGCUGUCA [Mat - Exclusion 3 - Mod of Salish D31] (puzzle: Exclusion 3),128,64.6,99.8,,,
AGAUGGCGAGGAUAUACAUGAGGAUCACCCAUGUGAGAAUAGAAAGUGAGGAAGAAAAGUAGAAGGCGCUGUCA [Mat - Exclusion 3 - Mod of Salish D22] (puzzle: Exclusion 3),125,59.7,73.4,,,
"AGAUGUAGAUACCGAUCCUACAUGAGGAUCACCCAUGUAGCUAGACGUGCGCGCGGCGCUCGUCAGACUACCAGUAG [salish99_TOv1_r3_093] (Eterna round: R96, puzzle: Sensor v3, turn-off variant 1)",,,,499,250,364
"AGAUGUAGAUACCGAUCCUACAUGAGGAUCACCCAUGUAGCUAGACGUGCGCGCGGCGCUCGUCAGACUACCAGUAG [salish99_TOv1_r3_093] (puzzle: Sensor v3, turn-off variant 1)",328,248,326,,,
"AGAUUACAUGAGGAUAUCGUAUUGGAUAUAGUGCGAGAAGGCAUGACAUGAGGAUCACCCAUGUAGUGUUGGGA [JR_Ex6_Sub010] (Eterna round: R97, puzzle: Exclusion 6)",,,,117,,187
"AGAUUGCGGCAAGGAUAUCUUUGUCAACUUAAAACAUGAGGAUCACCCAUGUGCAUCUUCGUGUGAGAGAAGGUGCGGCGAUCC [Raesredi] (Eterna round: R96, puzzle: Exclusion NG 2)",,,,1430,368,687
"AGAUUUGUAGUGAGGAUAUAGGAUGAGUAGUAGUACUAGAAGGCACAUGAGGAUCACCCAUGUAAGUGAAUGAG [Exclusion 4 mod test] (Eterna round: R97, puzzle: Brourd's mod of Exclusion 4)",,,,22.6,,20.2
AGCAAAUCAGGAUAUGUACUGGACGACAUGAGGAUCACCCAUGUGAUUCAGUGCGCGAGAACAGAAGGGAUUCGCU [Isor] (puzzle: Exclusion 5),,15.4,,,,
"AGCAAGCAAUAGGAUAUGCCUGCAAGCUUGCACGCAGAAGGAUUGACUUGAGGAUCACCCAAGUGGGCUCCAAA [Xemaesti] (Eterna round: R97, puzzle: Exclusion 6)",,,,356,,83.6
"AGCAGACGAGGAUAUAGAUUUAAGUACAUGAGGAUCACCCAUGUACAUAUGUAUUUAGAUUUAGAAGGCGUCUGCU [E5/16-A1] (Eterna round: R97, puzzle: Exclusion 5)",,,,27.7,,28.6
